From US10064928B2, “Peptides and combination of peptides for use in immunotherapy against CLL and other cancers” (IMMATICS BIOTECHNOLOGIES GMBH, priority 2015, dated 2018)

target: HLA-A*02:01 (Homo sapiens, UniProt P04439, D140Y/D185E/D98H/E176V/E277Q/G131W/G231S/I119V/I121R/I166T/I218V/L300P/L318F/N151K/N90K/P208A/P217A/Q86G/Q94H/R138H/R169H/T345S); assay: MHC binding assay (UV-ligand exchange, beta2m ELISA); conditions: binding of HLA-class I restricted peptides to HLA-A*02:01, β2m ELISA
Excerpt: Candidate peptides for T cell based therapies according to the present invention were further tested for their MHC binding capacity (affinity). The individual peptide-MHC complexes were produced by UV-ligand exchange, where a UV-sensitive peptide is cleaved upon UV-irradiation, and exchanged with the peptide of interest as analyzed. Only peptide candidates that can effectively bind and stabilize the peptide-receptive MHC molecules prevent dissociation of the MHC complexes. To determine the yield of the exchange reaction, an ELISA was performed based on the detection of the light chain (β2m) of stabilized MHC complexes. The assay was performed as generally described in Rodenko et al. (Rodenko et al., 2006).
96 well MAXISorp plates (NUNC) were coated over night with 2 ug/ml streptavidin in PBS at room temperature, washed 4× and blocked for 1 h at 37° C. in 2% BSA containing blocking buffer. Refolded HLA-A*02:01/MLA-001 monomers served as standards, covering the range of 15-500 ng/ml. Peptide-MHC monomers of the UV-exchange reaction were diluted 100 fold in blocking buffer. Samples were incubated for 1 h at 37° C., washed four times, incubated with 2 ug/ml HRP conjugated anti-β2m for 1 h at 37° C., washed again and detected with TMB solution that is stopped with […]. Absorption was measured at 450 nm. Candidate peptides that show a high exchange yield (preferably higher than 50%, most preferred higher than 75%) are generally preferred for a generation and production of antibodies or fragments thereof, and/or T cell receptors or fragments thereof, as they show sufficient avidity to the MHC molecules and prevent dissociation of the MHC complexes.

Substance	Peptide Exchange (MHC class I binding score, peptide exchange yield)
36 (FILTHVDQL; listed as Homo sapiens) [compound 36]	“++++” (≥75% = ++++)
37 (FIMEGGAMVL; listed as Homo sapiens) [compound 37]	“++++” (≥75% = ++++)
38 (FIMEGGAMV; listed as Homo sapiens) [compound 38]	“+++” (≥50 = +++)
39 (FLDALLTDV; listed as Homo sapiens) [compound 39]	“+++” (≥50 = +++)
40 (FLDEDDMSL; listed as Homo sapiens) [compound 40]	“++” (≥20% = ++)
41 (FLDPSLDPLL; listed as Homo sapiens) [compound 41]	“+++” (≥50 = +++)
42 (FLEEGGVVTV; listed as Homo sapiens) [compound 42]	“+++” (≥50 = +++)
43 (FLLGPEALSFA; listed as Homo sapiens) [compound 43]	“++++” (≥75% = ++++)
44 (FLLSINDFL; listed as Homo sapiens) [compound 44]	“+++” (≥50 = +++)
45 (FLPELPADLEA; listed as Homo sapiens) [compound 45]	“+++” (≥50 = +++)
46 (YIIDSAQAV; listed as Homo sapiens) [compound 46]	“+++” (≥50 = +++)
47 (FLSDQPEPYL; listed as Homo sapiens) [compound 47]	“++” (≥20% = ++)
48 (FLSPQQPPLL; listed as Homo sapiens) [compound 48]	“+++” (≥50 = +++)
50 (FLFEPVVKAFL; listed as Homo sapiens) [compound 50]	“+++” (≥50 = +++)
51 (FLVEAPHDWDL; listed as Homo sapiens) [compound 51]	“++++” (≥75% = ++++)
52 (FLVETGFLHV; listed as Homo sapiens) [compound 52]	“++++” (≥75% = ++++)
53 (FLWQHVELVL; listed as Homo sapiens) [compound 53]	“+++” (≥50 = +++)
55 (FMEPTLLML; listed as Homo sapiens) [compound 55]	“+++” (≥50 = +++)
58 (YIQQGIFSV; listed as Homo sapiens) [compound 58]	“+++” (≥50 = +++)
59 (FVFGDENGTVSL; listed as Homo sapiens) [compound 59]	“+++” (≥50 = +++)
60 (FVLDHEDGLNL; listed as Homo sapiens) [compound 60]	“+++” (≥50 = +++)
61 (FVYFIVREV; listed as Homo sapiens) [compound 61]	“+++” (≥50 = +++)
62 (GIIDGSPRL; listed as Homo sapiens) [compound 62]	“+++” (≥50 = +++)
63 (SLAHVAGCEL; listed as Homo sapiens) [compound 63]	“+++” (≥50 = +++)
64 (KLLESVASA; listed as Homo sapiens) [compound 64]	“+++” (≥50 = +++)
65 (GLDDMKANL; listed as Homo sapiens) [compound 65]	“++” (≥20% = ++)
66 (SLAGGLDDMKA; listed as Homo sapiens) [compound 66]	“+++” (≥50 = +++)
67 (GLDDVTVEV; listed as Homo sapiens) [compound 67]	“++” (≥20% = ++)
